Molecular target: Coxsackievirus and adenovirus receptor (CAR), endogenous on rat spinal cord motor neurons (rat (endogenous in spinal cord motor neurons)) (UniProt Q9R066)
Chain of UniProt Q9R066 (Q9R066 20-365): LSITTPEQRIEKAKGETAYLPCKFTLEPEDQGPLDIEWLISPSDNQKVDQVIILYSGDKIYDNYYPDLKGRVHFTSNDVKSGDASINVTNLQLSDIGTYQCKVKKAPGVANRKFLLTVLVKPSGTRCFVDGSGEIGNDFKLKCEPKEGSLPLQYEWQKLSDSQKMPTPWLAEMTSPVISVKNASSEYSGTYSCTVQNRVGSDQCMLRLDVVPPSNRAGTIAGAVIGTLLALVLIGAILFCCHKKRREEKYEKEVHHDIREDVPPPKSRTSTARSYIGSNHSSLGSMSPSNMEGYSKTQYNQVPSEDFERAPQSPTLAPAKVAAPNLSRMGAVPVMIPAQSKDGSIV

For “CAV-2 fibre knob, unlabelled recombinant (FK) (domain or fragment)”, the CAV-2 virion uptake in MNs after pre-incubation with saturating concentrations of recombinant FK (blocks CAV-2 virion with CAR) was 76%.
